To fix the notation:
B1: pY0192 VH F110A (Fab, V domains shown)
VH: EVQLVESGGGLVQPGGSLRLSCAASGYTFTNYGINWVRQAPGKGLEWVGWINTYTGEPTYAADFKRRFTFSLDTSKSTAYLQMNSLRAEDTAVYYCAKYPHYYGSSHWYADVWGQGTL
VL: DIQLTQSPSSLSASVGDRVTITCRANEQLSNYLNWYQQKPGKAPKVLIYFTSSLHSGVPSRFSGSGSGTDFTLTISSLQPEDFATYYCQQYSTVPWTFGQGTKVEIKR
notes: Ala-scan variant of pY0192; Fab on phage
B2: pY0192 VH G26A (Fab, V domains shown)
VH: EVQLVESGGGLVQPGGSLRLSCAASAYTFTNYGINWVRQAPGKGLEWVGWINTYTGEPTYAADFKRRFTFSLDTSKSTAYLQMNSLRAEDTAVYYCAKYPHYYGSSHWYFDVWGQGTL
VL: DIQLTQSPSSLSASVGDRVTITCRANEQLSNYLNWYQQKPGKAPKVLIYFTSSLHSGVPSRFSGSGSGTDFTLTISSLQPEDFATYYCQQYSTVPWTFGQGTKVEIKR
notes: as for B1
B3: pY0192 VH G104A (Fab, V domains shown)
VH: EVQLVESGGGLVQPGGSLRLSCAASGYTFTNYGINWVRQAPGKGLEWVGWINTYTGEPTYAADFKRRFTFSLDTSKSTAYLQMNSLRAEDTAVYYCAKYPHYYASSHWYFDVWGQGTL
VL: DIQLTQSPSSLSASVGDRVTITCRANEQLSNYLNWYQQKPGKAPKVLIYFTSSLHSGVPSRFSGSGSGTDFTLTISSLQPEDFATYYCQQYSTVPWTFGQGTKVEIKR
notes: as for B1
B4: pY0192 VH G56A (Fab, V domains shown)
VH: EVQLVESGGGLVQPGGSLRLSCAASGYTFTNYGINWVRQAPGKGLEWVGWINTYTAEPTYAADFKRRFTFSLDTSKSTAYLQMNSLRAEDTAVYYCAKYPHYYGSSHWYFDVWGQGTL
VL: DIQLTQSPSSLSASVGDRVTITCRANEQLSNYLNWYQQKPGKAPKVLIYFTSSLHSGVPSRFSGSGSGTDFTLTISSLQPEDFATYYCQQYSTVPWTFGQGTKVEIKR
notes: as for B1
B5: pY0192 VH I34A (Fab, V domains shown)
VH: EVQLVESGGGLVQPGGSLRLSCAASGYTFTNYGANWVRQAPGKGLEWVGWINTYTGEPTYAADFKRRFTFSLDTSKSTAYLQMNSLRAEDTAVYYCAKYPHYYGSSHWYFDVWGQGTL
VL: DIQLTQSPSSLSASVGDRVTITCRANEQLSNYLNWYQQKPGKAPKVLIYFTSSLHSGVPSRFSGSGSGTDFTLTISSLQPEDFATYYCQQYSTVPWTFGQGTKVEIKR
notes: as for B1
B6: pY0192 VH H107A (Fab, V domains shown)
VH: EVQLVESGGGLVQPGGSLRLSCAASGYTFTNYGINWVRQAPGKGLEWVGWINTYTGEPTYAADFKRRFTFSLDTSKSTAYLQMNSLRAEDTAVYYCAKYPHYYGSSAWYFDVWGQGTL
VL: DIQLTQSPSSLSASVGDRVTITCRANEQLSNYLNWYQQKPGKAPKVLIYFTSSLHSGVPSRFSGSGSGTDFTLTISSLQPEDFATYYCQQYSTVPWTFGQGTKVEIKR
notes: as for B1
B7: pY0192 VH H101A (Fab, V domains shown)
VH: EVQLVESGGGLVQPGGSLRLSCAASGYTFTNYGINWVRQAPGKGLEWVGWINTYTGEPTYAADFKRRFTFSLDTSKSTAYLQMNSLRAEDTAVYYCAKYPAYYGSSHWYFDVWGQGTL
VL: DIQLTQSPSSLSASVGDRVTITCRANEQLSNYLNWYQQKPGKAPKVLIYFTSSLHSGVPSRFSGSGSGTDFTLTISSLQPEDFATYYCQQYSTVPWTFGQGTKVEIKR
notes: as for B1
B8: pY0192 VH G33A (Fab, V domains shown)
VH: EVQLVESGGGLVQPGGSLRLSCAASGYTFTNYAINWVRQAPGKGLEWVGWINTYTGEPTYAADFKRRFTFSLDTSKSTAYLQMNSLRAEDTAVYYCAKYPHYYGSSHWYFDVWGQGTL
VL: DIQLTQSPSSLSASVGDRVTITCRANEQLSNYLNWYQQKPGKAPKVLIYFTSSLHSGVPSRFSGSGSGTDFTLTISSLQPEDFATYYCQQYSTVPWTFGQGTKVEIKR
notes: as for B1

The target of the test is T1, VEGF (human, UniProt P15692-4 27-191, limits assumed).
T1 construct: Biotinylated in the KDR-IgG ELISA, amine-coupled to the chip in BIAcore; also called biotinylated VEGF; vascular endothelial growth factor
T1 sequence (P15692 other isoform, or with tags, fused parts or gaps limits assumed): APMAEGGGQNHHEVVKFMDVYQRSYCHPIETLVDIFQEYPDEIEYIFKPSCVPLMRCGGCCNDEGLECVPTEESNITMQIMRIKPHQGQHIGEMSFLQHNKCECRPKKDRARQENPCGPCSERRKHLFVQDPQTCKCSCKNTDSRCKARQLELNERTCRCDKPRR
Put plainly: competitive phage-ELISA, relative to pY0192. The procedure: In such an assay, phages were first serially diluted to determine a fractional saturation titer which was then held constant and used to incubate with varying concentrations of VEGF (starting at 200 nM to 0 nM) in solution. The mixture was then transferred onto plate precoated with VEGF (2 μg/mL) and blocked with 5% instant milk, and allowed to equilibrate for 1 hour at room temperature. Thereafter, the phage solution was removed and the remaining bound phages were detected with a solution of rabbit anti-phage antibody mixed with goat anti-rabbit conjugate of horse radish peroxidase. After an hour incubation at room temperature, the plate was developed with a chromogenic substrate, o-phenylenediamine (Sigma). The reaction was stopped with addition of ½ volume of 2.5 M H₂SO₄. Optical density at 492 nm was measured on a spectrophotometric plate reader.
IC50's were determined in a competitive phage-ELISA assay.
For orientation: An ELISA detects its analyte on a solid surface through an enzyme-linked reagent.
On to B1, for which the “IC50 (mut)/IC50 (wt)” value worked out at 25 ratio.
B2: the “IC50 (mut)/IC50 (wt)” value was 2 ratio.
Turning to B3, the “IC50 (mut)/IC50 (wt)” value is 2 ratio.
On to B4, for which the “IC50 (mut)/IC50 (wt)” value amounted to 1 ratio.
For B5, the “IC50 (mut)/IC50 (wt)” value was found to be 6 ratio.
B6: the “IC50 (mut)/IC50 (wt)” value stood at 2 ratio.
Regarding B7, the “IC50 (mut)/IC50 (wt)” value came to 4 ratio.
Turning to B8, the “IC50 (mut)/IC50 (wt)” value amounted to 6 ratio.

For the origin of these results see patent US20050112126A1 (Genentech, published 2005).
